Experimental data reported in US20240228629A1 (CITY OF HOPE, published 2024).
Blank lines part the entries; values can stand above or below the binder they belong to.

Key:
[1] = biological target: T1, D4-IgA1 (extracellular domain IV of human EGFR fused with human IgA1.Fc) (human); assay: ELISA: EGFR-IgA1 immobilised in microwells, hybridoma culture supernatant, goat anti-mouse IgG.Fc-HRP, OD450
T1 construct: also called EGFR-IgA1; human EGFR-IgA
T1 chain: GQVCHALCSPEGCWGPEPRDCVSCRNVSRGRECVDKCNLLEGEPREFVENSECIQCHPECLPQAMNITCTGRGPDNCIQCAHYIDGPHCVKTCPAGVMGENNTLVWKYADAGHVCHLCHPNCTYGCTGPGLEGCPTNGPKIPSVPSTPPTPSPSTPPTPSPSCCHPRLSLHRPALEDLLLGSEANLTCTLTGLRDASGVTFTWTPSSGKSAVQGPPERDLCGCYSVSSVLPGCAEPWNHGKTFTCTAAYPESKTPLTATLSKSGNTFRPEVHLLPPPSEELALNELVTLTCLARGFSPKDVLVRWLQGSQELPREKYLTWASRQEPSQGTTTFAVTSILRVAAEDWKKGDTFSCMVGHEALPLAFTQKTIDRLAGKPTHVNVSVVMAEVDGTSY

BSA = biological target: T2, BSA (bovine, UniProt P02769); assay: ELISA on coated recombinant proteins, title "Titer of purified mAb"; antibody concentration not given
T2 construct: also called bovine serum albumin

EGFR domain IV [2] = biological target: T3, EGFR domain IV (human, UniProt P00533 505-645); assay: SPR, EGFR domain IV immobilised on CM5 chip, Fab injected
T3 construct: Immobilised on a CM5 chip for SPR; also called domain IV of EGFR; EGFR D4
Protocol: EGFR domain IV was immobilized on a CM5 chip at a density of 500 RU through EDC/NHS coupling. […] In another experiment, EGFR domain IV was again immobilized on a CM5 chip at a density of 500 RU through EDC/NHS coupling. […] The samples were injected at concentrations of 300 nM, 100 nM, 30 nM, 10 nM, and 3 nM (FIGS. 15A-15C). The sensorgram curves were subsequently analyzed.

EGFR domain IV [3] = biological target: T3, EGFR domain IV; assay: SPR, EGFR domain IV immobilised on CM5 chip, IgG injected; Table 18 (second kinetic set, apart from Table 17)
EGFR domain IV [4] = biological target: T3, EGFR domain IV; assay: SPR, EGFR domain IV immobilised on CM5 chip, IgG injected
EGFR domain IV [5] = biological target: T3, EGFR domain IV; assay: as above; remark: listed apart in the source
[6] = biological target: T4, EGFRviii on U87-EGFRviii cells (human, UniProt P00533); assay: flow cytometry on U87-EGFRviii cells, 1, 10, 100 ug/ml, anti-Fc Alexa-647 secondary
T4 construct: the U87-EGFRviii cells also carry whatever EGFR the parent U87 line carries; a shift on these cells cannot be split between the two forms
Protocol: The cells were detached by trypsin and incubated with 1, 10, or 100 ug/ml EGFR Ab in 2% BSA in PBS at 4° ° C. After 30 minutes, cells were washed with 2% BSA in PBS. […] The cells were analyzed by flow cytometry after washing.

T2 sequence (P02769 25-607 limits assumed): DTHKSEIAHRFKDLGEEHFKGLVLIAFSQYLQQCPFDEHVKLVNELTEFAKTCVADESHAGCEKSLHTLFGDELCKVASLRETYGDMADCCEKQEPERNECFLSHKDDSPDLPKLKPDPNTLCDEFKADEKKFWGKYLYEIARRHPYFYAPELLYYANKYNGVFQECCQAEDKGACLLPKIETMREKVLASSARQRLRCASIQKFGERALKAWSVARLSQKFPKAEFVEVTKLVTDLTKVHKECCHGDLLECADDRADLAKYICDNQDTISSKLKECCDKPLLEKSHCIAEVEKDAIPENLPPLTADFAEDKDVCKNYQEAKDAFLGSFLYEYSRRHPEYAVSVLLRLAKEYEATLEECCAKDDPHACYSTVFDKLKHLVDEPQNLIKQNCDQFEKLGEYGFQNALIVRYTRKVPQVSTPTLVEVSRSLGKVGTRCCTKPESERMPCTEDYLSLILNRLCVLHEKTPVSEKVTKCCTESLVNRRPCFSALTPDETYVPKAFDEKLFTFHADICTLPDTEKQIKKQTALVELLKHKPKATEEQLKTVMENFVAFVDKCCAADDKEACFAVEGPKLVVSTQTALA

B1: 5C8 hybridoma clone antibody (mouse, culture supernatant) (antibody, V domains shown)
VH: EVQLQQSGPELVKTGASVKISCKASGYSFTGYYMHWVKQSHGKSLEWIGYINCYNGAINYNQKFKGKATFTVDTSSSTVYMQFNSLTSEDSAVYYCVRAGIHYDYDEAWFAYWGQGTLVTVSA
VL: QAVVTQESALTTSPGETVTLTCRSSTGPVIIRNYANWVQEKPDHLFTGLIGGTNNRAPGVPARFSGSLIGDKAALTITGAQTEDEAIYFCALWYNNHWVFGGGTKLTVL
notes: Mouse antibody from hybridoma supernatant; also called 5C8 clone; Clone 5C8
binding result [1]: binds | binding result (BSA): no binding

B2: EGFRD4-5C8 Fab (Fab, V domains shown)
VH: EVQLQQSGPELVKTGASVKISCKASGYSFTGYYMHWVKQSHGKSLEWIGYINCYNGAINYNQKFKGKATFTVDTSSSTVYMQFNSLTSEDSAVYYCVRAGIHYDYDEAWFAYWGQGTLVTVSA
VL: QAVVTQESALTTSPGETVTLTCRSSTGPVIIRNYANWVQEKPDHLFTGLIGGTNNRAPGVPARFSGSLIGDKAALTITGAQTEDEAIYFCALWYNNHWVFGGGTKLTVL
notes: Fab of clone 5C8
Kd (EGFR domain IV [2]): 170 nM | koff (EGFR domain IV [2]): 0.0305 s⁻¹ | kon (EGFR domain IV [2]): 179000 M⁻¹ s⁻¹

Now from value to binder:

Kd (EGFR domain IV [3]): 0.214 nM | koff (EGFR domain IV [4]): 0.00013 s⁻¹ | kon (EGFR domain IV [4]): 604000 M⁻¹ s⁻¹ | Kd (EGFR domain IV [5]): 0.487 nM | koff (EGFR domain IV [5]): 0.000249 s⁻¹ | kon (EGFR domain IV [5]): 512000 M⁻¹ s⁻¹
B3: chimeric anti-domain IV EGFR antibody clone 5C8 (EGFRD4-5C8) (antibody, V domains shown)
VH: EVQLQQSGPELVKTGASVKISCKASGYSFTGYYMHWVKQSHGKSLEWIGYINCYNGAINYNQKFKGKATFTVDTSSSTVYMQFNSLTSEDSAVYYCVRAGIHYDYDEAWFAYWGQGTLVTVSA
VL: QAVVTQESALTTSPGETVTLTCRSSTGPVIIRNYANWVQEKPDHLFTGLIGGTNNRAPGVPARFSGSLIGDKAALTITGAQTEDEAIYFCALWYNNHWVFGGGTKLTVL
notes: also called 5C8 IgG; 5C8 mAb

binding result [6]: binds
B4: EGFRD4-34Ab (antibody, V domains shown)
VH: QIQLVQSGPELKKPGETVKISCKASGYTFTNYGMNWVKQAPGKGLKWMGWINTYTGDPTYADDFKGRFAFSLETSASTAYLQINNLKNEDMATYFCARRISTMITTWFAYWGQGTLVTVSA
VL: DIQMTQSPASLSASVGETVTITCRASENIYSYLAWFQQRQGKSPQLLVYNAKTLTEGVPSRFSGSGSGTQFSLKINSLQPEDFGSYYCQHYQVTPYTFGGGTKLEIK
notes: also called Clone # 34
